According to US20090318350A1, “PAN-HER ANTAGONISTS AND METHODS OF USE” (priority 2006, published 2009):

Legend:
Her-3 = Her-3 (Homo sapiens, UniProt P21860); details: particularly for Her-3; cited from earlier work
HER5 cells [1] = assay: Cell proliferation assay (WST-1), EGF dependent HER5 cells; format: cell-based, mouse; details: 48 hour proliferation, phage fusion or purified protein as labelled, read-out: Calculated cell proliferation (EC50)
Experimental: (§1) Phage-fusion particles displaying ligand variants were evaluated for their ability to stimulate cell proliferation in the cell proliferation assay described herein in both an EGF dependent cell line, HER5 and a heregulin dependent cell line, MCF-7.
The HER5 cell line, a murine fibroblast line (derived from the NR-6 line; mouse fibroblast cells that overexpress human EGFR) that has been stably transfected to express the human EGF receptor was provided by Dr. M. C. Hung (MD Anderson Cancer Center).
Stock cultures of HER5 were propagated in D-MEM/F12 medium containing 10% fetal bovine serum, 100 units/ml of penicillin and 100 ug/ml of streptomycin in a water-jacketed incubator at 37° C. in a humidified 5% CO2 atmosphere.
For HER5 proliferation assays, the cells were changed into DMEM/F12 without serum for 24 hours. Cells were then trypsinized and suspended at 1E5 cells/ml. Serial dilutions of EGF (PeproTech, Rocky Hill, N.J.), and HER ligand polypeptide variants were prepared in serum-free DMEM/F12 at 2-fold the final concentration and plated into the wells of 96-well plates. […] Cell proliferation was determined by addition of 10 ul/well of WST-1 Cell Proliferation Reagent (Roche Applied Sciences, Indianapolis, Ind.) for the last three hours of the proliferation period. […] The amount of formazan was measured at 450 nm using a microplate reader (Dynex Technologies) with MRX Revelation software.

HER5 cells [2] = details: cited from earlier work
MCF-7 cells [3] = details: stated as known; cited from earlier work
MCF-7 cells [4] = assay: Cell proliferation assay (WST-1), heregulin dependent MCF-7 cells; format: cell-based, human; details: 72 hours, phage fusion or purified protein as labelled, read-out: Calculated cell proliferation (EC50)
Experimental: as §1
MCF-7 cells (human breast cancer cell lines that express HER2 and HER3) were obtained from the American Type Culture Collection (ATCC). Stock cultures of MCF-7 were maintained in Eagle's MEM supplemented with 1% ITS-X (Invitrogen) and 10% fetal bovine serum.
For proliferation assays, MCF-7 cells were transferred to serum-free medium (SFM) for 24 hours and then trypsinized and suspended at 10^5 cells/mL in SFM. Fifty microliters of cell suspension (5000 cells) were plated per well in 96 well microtiter plates. Serial dilutions of HER ligands or mutant proteins were prepared at twice the final concentration in SFM and 50 ul was added to wells, bringing the final volume to 100 ul at the desired final concentration. Plates were incubated for 72 hours at 37 C in a humidified 5% CO2 atmosphere. Cell proliferation was determined by addition of 10 ul/well of WST-1 Cell Proliferation Reagent (Roche Applied Sciences, Indianapolis, Ind.) for the last three hours of the proliferation period.

Chain of Her-3 (P21860 20-1342): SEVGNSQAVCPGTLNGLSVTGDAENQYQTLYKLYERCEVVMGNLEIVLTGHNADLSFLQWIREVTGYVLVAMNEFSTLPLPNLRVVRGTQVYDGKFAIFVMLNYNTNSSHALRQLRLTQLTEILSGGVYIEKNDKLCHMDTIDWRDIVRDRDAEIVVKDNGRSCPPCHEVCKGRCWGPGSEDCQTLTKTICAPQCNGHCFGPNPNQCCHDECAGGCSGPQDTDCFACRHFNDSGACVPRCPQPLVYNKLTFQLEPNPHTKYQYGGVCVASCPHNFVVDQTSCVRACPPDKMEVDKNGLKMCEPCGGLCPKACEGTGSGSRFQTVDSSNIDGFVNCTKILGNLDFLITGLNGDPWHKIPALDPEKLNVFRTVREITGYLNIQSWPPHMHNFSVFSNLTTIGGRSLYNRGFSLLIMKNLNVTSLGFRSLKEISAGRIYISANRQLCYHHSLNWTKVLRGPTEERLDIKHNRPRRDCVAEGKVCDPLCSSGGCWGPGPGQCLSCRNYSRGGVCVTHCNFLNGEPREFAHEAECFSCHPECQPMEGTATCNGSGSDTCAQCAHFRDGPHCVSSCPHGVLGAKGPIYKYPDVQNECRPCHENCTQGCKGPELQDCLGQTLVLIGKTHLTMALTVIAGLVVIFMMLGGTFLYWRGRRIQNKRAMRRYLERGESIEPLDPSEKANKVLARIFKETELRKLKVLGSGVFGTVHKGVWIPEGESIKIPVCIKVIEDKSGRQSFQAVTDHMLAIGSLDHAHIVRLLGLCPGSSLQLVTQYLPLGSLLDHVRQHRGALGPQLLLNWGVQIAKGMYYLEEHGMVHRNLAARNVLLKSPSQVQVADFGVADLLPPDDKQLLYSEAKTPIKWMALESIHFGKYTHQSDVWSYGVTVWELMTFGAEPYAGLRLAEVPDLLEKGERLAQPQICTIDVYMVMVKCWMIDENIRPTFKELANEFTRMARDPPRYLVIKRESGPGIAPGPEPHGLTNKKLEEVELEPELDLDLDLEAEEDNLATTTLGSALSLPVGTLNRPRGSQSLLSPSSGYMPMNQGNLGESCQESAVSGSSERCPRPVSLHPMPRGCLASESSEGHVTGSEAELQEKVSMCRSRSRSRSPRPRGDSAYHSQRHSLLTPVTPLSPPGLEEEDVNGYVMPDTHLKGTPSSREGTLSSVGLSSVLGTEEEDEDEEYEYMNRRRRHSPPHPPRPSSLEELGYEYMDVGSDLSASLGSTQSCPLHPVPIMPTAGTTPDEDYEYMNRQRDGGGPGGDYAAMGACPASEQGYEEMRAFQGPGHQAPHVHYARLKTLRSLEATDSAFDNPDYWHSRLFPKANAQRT

B1: EGFwrs: EGF variant, residues 2 and 3 replaced with W and R, N-terminus NWRSE (protein)
chain: HHHHHHIEGRNWRSECPLSHDGYCLHDGVCMYIEALDKYACNCWGYIGERCQYRDLKWWELR
binding affinity (Her-3): high binding affinity

B2: EGF (purified protein): human epidermal growth factor, 53 amino acid cytokine (PeproTech) (protein)
chain: HHHHHHIEGRNSDSECPLSHDGYCLHDGVCMYIEALDKYACNCWGYIGERCQYRDLKWWELR
EC50 (HER5 cells [1]): 1.15 nM
stimulation of HER5 cells (HER5 cells [2]; stated as known): can be stimulated
stimulation of MCF-7 cells (MCF-7 cells [3]): not

B3: T1ER41D: T1E with arginine of position 41 replaced by aspartate (protein)
chain: VVSHFNDCPLSHDGYCLHDGVCMYIEALDKYACNCVVGYIGEDCQYRDLKWWELRAETVESCLAKPHTENSFTNVWKDDKTLDRYANYEGCLWNATGVVVCTGDETQCYGTWVPIGLAIPENEGGGSEGGGSEGGGSEGGGTKPPEYGDTPIPGYTYINPLDGTYPPGTEQNPANPNPSLEESQPLNTFMFQNNRFRNRQGALTVYTGTVTQGTDPVKTYYQYTPVSSKAMYDAYWNGKFRDCAFHSGFNEDPFVCEYQGQSSDLPQPPVNAGGGSGGGSGGGSEGGGSEGGGSEGGGSEGGGSGGGSGSGDFDYEKMANANKGAMTENADENALQSDAKGKLDSVATDYGAAIDGFIGDVSGLANGNGATGDFAGSNSQMAQVGDGDNSPLMNNFRQYLPSLPQSVECRPFVFSAGKPYEFSIDCDKINLFRGVFAFLLYVATFMYVFSTFANILRNKES
stimulation of cell proliferation in EGFR-dependent HER5 cells (HER5 cells [2]; isolated ligand variants, previously demonstrated): greatly attenuated activity

B4: Heregulin (purified protein): heregulin, native HER3/HER4 ligand, purified protein (protein)
chain: SHLVKCAEKEKTFCVNGGECFMVKDLSNPSRYLCKCPNEFTGDRCQNYVMASFYKHLGIEFMEAEELY
EC50 (MCF-7 cells [4]): 6.15 nM
stimulation of MCF-7 cells (MCF-7 cells [3]): can be stimulated
